Results from PMC9156741, “Blocking phospholamban with VHH intrabodies enhances contractility and relaxation in heart failure” (Nature Communications, 2022).

T1: PLN peptide V (biotin-HPDP-Cys-EKVQYLTRSAIRRASTIEMPQQARQ-NH2) (biotin-HPDP on the N-terminal Cys (cysteine persulphide); C-terminal amidation)
T1 peptide: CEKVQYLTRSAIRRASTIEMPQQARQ

T2: pS16 PLN peptide VI (biotin-HPDP-Cys-EKVQYLTRSAIRRApSTIEMPQQARQ-NH2) (phosphoserine at Ser 16 (pS in the printed sequence); biotin-HPDP on the N-terminal Cys (cysteine persulphide); C-terminal amidation)
T2 peptide: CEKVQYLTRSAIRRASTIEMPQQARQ

T3: PLN peptide V (biotin-HPDP-Cys-EKVQYLTRSAIRRASTIEMPQQARQ-NH2) (biotin-HPDP on the N-terminal Cys (cysteine persulphide); C-terminal amidation)
T3 construct: added N-terminal cysteine residue that carries biotin-HPDP; phospholamban (PLN), stretch of the cytoplasmic regulatory domain; also called non-phosphorylated PLN peptide; source: synthetic peptide (Bachem, Switzerland)
T3 peptide: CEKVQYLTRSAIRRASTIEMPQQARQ

T4: pS16 PLN peptide VI (biotin-HPDP-Cys-EKVQYLTRSAIRRApSTIEMPQQARQ-NH2) (phosphoserine at Ser 16 (pS in the printed sequence); biotin-HPDP on the N-terminal Cys (cysteine persulphide); C-terminal amidation)
T4 construct: added N-terminal cysteine residue that carries biotin-HPDP; phospholamban (PLN), stretch of the cytoplasmic regulatory domain, phosphorylated at Ser 16; also called p16S PLN peptide; source: synthetic peptide (Bachem, Switzerland)
T4 peptide: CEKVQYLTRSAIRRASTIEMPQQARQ

B1: VHH B4 (VHH)
VHH: EVQLQESGGGLVQAGGSLRLSCAASGFSFYRHAMGWFRQAPGKEREWVAEIDWEGGYTYYADSVKGRFTISRDNAKNTVYLQMNSLKPEDTAVYYCAAGRDLYAYWGQGTQVTVSS
notes: VHH B4, from the synthetic LlamdA phage-display VHH library (llama VHH framework); also called clone B4; source: E. coli HB2151, small-scale cultures induced with IPTG (ELISA); expressed and purified according to previously described protocols (SPR)
B2: VHH2 B4B4 (VHH)
chain: EVQLQESGGGLVQAGGSLRLSCAASGFSFYRHAMGWFRQAPGKEREWVAEIDWEGGYTYYADSVKGRFTISRDNAKNTVYLQMNSLKPEDTAVYYCAAGRDLYAYWGQGTQVTVSSGGGSGGGSGGGSEVQLQESGGGLVQAGGSLRLSCAASGFSFYRHAMGWFRQAPGKEREWVAEIDWEGGYTYYADSVKGRFTISRDNAKNTVYLQMNSLKPEDTAVYYCAAGRDLYAYWGQGTQVTVSS
notes: N-terminal VHH B4 domain; (Gly3Ser)3 linker, as named in the methods and encoded by the printed primers; C-terminal VHH B4 domain; Bivalent VHH on one chain; also called bivalent variant of VHH B4; bivalent VHH2 B4B4; source: E. coli HB2151 (pHEN4 vector); expressed and purified according to previously described protocols
B3: VHH C6 (VHH)
VHH: EVQLQESGGGLVQAGGSLRLSCAASGFTLYAMGWFRQAPGKEREFVAAITPHGSTTYYADSVKGRFTISRDNAKNTVYLQMNSLKPEDTAVYYCHTYYSGSWGQGTQVTVSS

Assays:
[1] = target: T1, PLN peptide V …; assay: SPR
[2] = target: T2, pS16 PLN peptide VI …; assay: SPR; pS16 phosphorylated
[3] = target: T2, pS16 PLN peptide VI …; assay: SPR; pS16 phosphorylated; kinetic fit
[4] = target: T3, PLN peptide V …; assay: SPR; Biacore T200; peptide V or VI immobilised on streptavidin SA chip (50-100 RU); VHH as analyte, single-cycle kinetics with five increasing concentrations; PBS pH 7.4 + 0.05% Tween 20; 1:1 Langmuir model; details: both partners purified
[5] = target: T4, pS16 PLN peptide VI …; assay: as above; details: both partners purified
[6] = target: T1, PLN peptide V …; assay: SPR
[7] = target: T3, PLN peptide V …; assay: SPR; Biacore T200; peptide V or VI immobilised on streptavidin SA chip (50-100 RU); VHH2 as analyte, single-cycle kinetics; PBS pH 7.4 + 0.05% Tween 20; bivalent analyte model; apparent Kd; details: both partners purified
[8] = target: T4, pS16 PLN peptide VI …; assay: as above; details: both partners purified
[9] = target: pS16 PLN peptide VI (biotin-HPDP-Cys-…p…-NH2); assay: SPR; Biacore T200; peptide V or VI immobilised on streptavidin SA chip (50-100 RU); VHH as analyte, single-cycle kinetics with five increasing concentrations; PBS pH 7.4 + 0.05% Tween 20; 1:1 Langmuir model

Row | Binder | koff [1] [s⁻¹] | koff [2] [s⁻¹] | Kd [3] [nM] | Kd [4] [nM] | Kd [5] [nM] | Kd [6] [nM] | Kd [7] [nM] | Kd [8] [nM] | Kd [9] [nM]
1 | B1 | 0.025 | 0.18 | 618 | 44 | 682 | – | – | – | –
2 | B2 | 0.00011 | 0.0052 | – | – | – | 0.1 | 0.15 | 1 | –
3 | B3 | – | 0.33 | – | – | – | – | – | – | 680
